Data on two proteins can be found in patent US20160039867A1 (COMPLIX, published 2016).

Data set [1] deals with the molecule itself. Put plainly: CD thermal unfolding curve (222 nm, 292 microM peptide) fitted to a monomer-trimer equilibrium; self-association of the peptide. As to the method:
The said synthesized peptide was dissolved at a concentration of 292 microM in 20 mM phosphate buffer (PBS), 150 mM NaCl, pH 7.2. The CD spectra were measured between […], at 5° C. and 90° C. (FIG. 3). The spectrum at 5° C. was indicative of a high alpha-helical secondary structure content, in agreement with the expectation that all heptad regions, but not all of the flanking residues, would assemble as alpha-helical coiled coils.
In order to analyze whether the temperature-induced transition between helical and non-helical states was reversible, a forward (up) and backward (down) thermal scan was performed on the same sample, by recording the CD signal at […] as a function of temperature at a scanning rate of about 1 degree Celsius per minute (FIG. 4). It was observed that the up and down scans almost perfectly coincided, thereby confirming the quantitative unfolding and refolding of the peptides in the sample.
FIG. 5 represents fitting of a theoretic equation for trimeric association to experimental data. The experimental data are taken from FIG. 4, curve labeled ‘UP’. The theoretic equations used are listed supra. The fitted parameters (fitting results) are listed at the right in FIG. 5. ‘Transit. T’ corresponds to Tₜ, but is expressed in degrees Celsius. The parameter ‘delta Cₚ’ was kept constant at 3.0 kJ mol⁻¹ K⁻¹. […]

Data set [2] concerns the molecule itself. Put plainly: analytical sedimentation equilibrium ultracentrifugation, 25000 rpm, about 1 mg/ml; self-association of the peptide.

B1: peptide Ac-MSIEEIQKQQAAIQKQIAAIQKQIYRMTP-NH2 (reference artificial peptide of Example 3) (peptide)
peptide: Ac-MSIEEIQKQQAAIQKQIAAIQKQIYRMTP-NH2
notes: Synthetic designed coiled coil-forming peptide; also called said synthesized peptide
In the case of B1, the binding result in data set [1] is “binds”.

B2: Q2aI peptide Ac-MSIEEIQKQIAAIQKQIAAIQKQIYRMTP-NH2 (peptide)
peptide: Ac-MSIEEIQKQIAAIQKQIAAIQKQIYRMTP-NH2
notes: Synthetic designed coiled coil-forming peptide; also called all-isoleucine core peptide
For B2, the binding result in data set [2] is “binds”.
